The text below walks through data of patent US20100111941A1, “METHODS FOR TREATING CANCER” (priority 2006, published 2010).

In data set [1] the test system is Human colorectal cancer cells (HCT116). Put plainly: murine colorectal cancer-hepatic metastasis mouse model (HCT116). It is filed as in vivo, nude mice (NU/NU). As to conditions: for Hepatic metastasis-free events: rNAPc2/pro 300 μg/kg daily IP for 28 days, CPT-11 100 mg/kg once-weekly IP for 4 weeks, livers removed day 42, 8 mice/group. On the procedure:
To determine the effect of rNAPc2/pro in treating hepatic tumor metastasis, a murine colorectal cancer-hepatic metastasis mouse model was used.
(§1) The mice were treated as follows (8 mice/group):
2) HCT116/vehicle control;
3) HCT116/rNAPc2/pro (300 μg/kg, daily IP injection for 28 days);
4) HCT116/CPT-11 (100 mg/kg, once-weekly IP injection for 4 weeks); and
On day 42, the livers were surgically removed, weighed and the number of liver surface metastases were counted in a blinded fashion. The other internal organs were examined for signs of hemorrhage. […] In some of the mice, no hepatic metastases were observed (Table 2).

In data set [2] the test system is lung carcinoma tumors and melanoma tumors. As to conditions: mouse models; Hembrough et al., Cancer Res. 63:2997-3000 (2003); cited from earlier work.
The subject of data set [3] is HCT116 tumor xenografts (human colorectal cancer cells). Particulars: for tumor weight reduced by, compared to vehicle control: day 14, rNAPc2/pro 300 μg/kg daily IP, 5-FU 10 mg/kg every-other-day IP, AVASTIN 0.5 mg/kg twice-weekly IP, 14 days, 6 mice/group. On the procedure:
To determine the effect of rNAPc2/pro in combination with 5-fluorouracil (5-FU) in colorectal cancer, a murine xenograft colorectal tumor model was used. Human colorectal cancer cells (HCT116) were cultured in DMEM medium supplemented with 10% fetal bovine serum (FBS), harvested at log growth phase, enumerated and resuspended in HBSS buffer. Eight to ten week old female nude mice (NU/NU) were inoculated subcutaneously with 1×10^7 cells/mouse in a volume of 100 μl. Tumors were allowed to develop to an average size of 50 to 100 mm^3 before the treatment started (defined as day 0). HCT116 tumor xenograft-bearing mice were randomized into various treatment conditions and the treatment regimens lasted for 14 days.
The mice were treated as follows (6 mice/group):
2)rNAPc2/pro (300 μg/kg, daily IP injection for 14 days);
3) LOVENOX® (1.5 mg/kg, daily IP injection for 14 days);
4) 5-FU (10 mg/kg, every-other-day IP injection for 14 days);
5) AVASTIN® (0.5 mg/kg, twice-weekly IP injection for 14 days);
10) LOVENOX®+AVASTIN®; and
The mice were monitored every-other-day for body weight, signs of morbidity (i.e., hemorrhage) and mortality. On day 14, mice were extirpated for HCT116 tumor xenografts and the tumors were weighed and measured. Tumor size was calculated as follows: tumor volume (size)=(length)×(width^2)/2 (mm^3).

For another data set, the target named is T1, Factor Xa (Homo sapiens, UniProt P00742).
T1 construct: made in house
Particulars: selective = at least 10-fold higher potency than on related enzymes; cited from earlier work.

For another data set, the system named is angiogenesis. Particulars: Hembrough et al., Cancer Res. 63:2997-3000 (2003); cited from earlier work.
The target in the next data set is T2, fVIIa/TF complex (Homo sapiens, UniProt P08709+P13726).
T2 construct: Lyophilized, purified, recombinant human fVlla is reconstituted in HBS
Particulars: when fXa, or a catalytically active or inactive derivative thereof, is present; cited from earlier work.

Data set [4] deals with intestinal adenomas and adenocarcinomas. Briefly: murine spontaneous intestinal neoplasia mouse model (Min mouse).
Description: To determine the effect of rNAPc2/pro in treating intestinal adenomas and adenocarcinomas, a murine spontaneous intestinal neoplasia mouse model was used: the Min mouse (The Jackson Laboratory, Bar Harbor, Me., USA).
Four to five week old Apc^Min/+ or syngenic wild-type control (age- and sex-matched) were randomized into various treatment conditions and the treatment regimens lasted for 10 to 11 weeks.
The mice were treated as follows:
1) Wild-type/vehicle control (3 mice);
2) Wild-type/rNAPc2/pro (100 μg/kg, daily IP injection) (3 mice);
3) Apc^Min/+/vehicle control (6 mice);
4) Apc^Min/+/rNAPc2/pro (6 mice); and
5) Apc^Min/+/LOVENOX® (500 μg/kg, daily IP injection) (6 mice).
The mice were monitored every-other-day for body weight, signs of morbidity (i.e. hemorrhage) and mortality. On week 16, the intestines were removed, separated into proximal, middle and distal small intestine and colon, formed into “Swiss rolls” and processed for analysis. Mice were injected with 4 mg/mouse BrdU 2 h prior to harvest.
In data set [5] the test system is Murine colorectal cancer cells (CT26). Briefly: murine colorectal cancer-pulmonary metastasis mouse model (CT26). Particulars: for Number of mice with no observable lung surface metastases: 8 mice/group. It is filed as in vivo, BALB/c mice. On the procedure: To determine the effect of rNAPc2/pro in treating pulmonary tumor metastasis, a murine colorectal cancer-pulmonary metastasis mouse model was used. […] Nine to eleven week old female syngenic BALB/c mice were inoculated via tail vein injection with 1×10^6 cells/mouse in a volume of 100 μl (defined as day 0).
as §1
3) CT26/rNAPc2/pro (10 μg/kg/day);
4) CT26/rNAPc2/pro (30 μg/kg/day);
5) CT26/rNAPc2/pro (100 μg/kg/day);
6) CT26/rNAPc2/pro (300 μg/kg/day);
7) CT26/rNAPc2/pro (1 mg/kg/day);
8) CT26/rNAPc2/pro (2.5 mg/kg/day); and
9) CT26/LOVENOX® (1.5 mg/kg/day, IP injection).
On day 11, the lungs were surgically removed, weighed and the number of lung surface metastases were counted in a blinded fashion. The other internal organs were examined for signs of hemorrhage. […] In some of the mice, no lung surface metastases were observed (Table 1). rNAPc2/pro was well-tolerated up to 2.5 mg/kg/day in mice with no hemorrhage-related mortality. […] No significant difference in animal body weight was observed between all experimental groups.

T2 sequence (P08709 213-466 limits assumed): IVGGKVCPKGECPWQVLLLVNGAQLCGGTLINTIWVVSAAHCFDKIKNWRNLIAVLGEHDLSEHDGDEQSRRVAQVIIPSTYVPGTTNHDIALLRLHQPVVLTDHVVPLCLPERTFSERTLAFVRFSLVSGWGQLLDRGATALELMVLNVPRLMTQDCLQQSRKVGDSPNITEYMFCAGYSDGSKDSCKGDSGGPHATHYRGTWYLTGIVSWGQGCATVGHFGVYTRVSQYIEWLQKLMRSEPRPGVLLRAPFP
T2 sequence (P08709 61-212 limits assumed): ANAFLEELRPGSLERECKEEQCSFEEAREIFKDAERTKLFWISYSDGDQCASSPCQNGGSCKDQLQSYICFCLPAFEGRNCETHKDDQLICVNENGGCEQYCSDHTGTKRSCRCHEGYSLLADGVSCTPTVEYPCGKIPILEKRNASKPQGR
T2 sequence (P13726 33-295): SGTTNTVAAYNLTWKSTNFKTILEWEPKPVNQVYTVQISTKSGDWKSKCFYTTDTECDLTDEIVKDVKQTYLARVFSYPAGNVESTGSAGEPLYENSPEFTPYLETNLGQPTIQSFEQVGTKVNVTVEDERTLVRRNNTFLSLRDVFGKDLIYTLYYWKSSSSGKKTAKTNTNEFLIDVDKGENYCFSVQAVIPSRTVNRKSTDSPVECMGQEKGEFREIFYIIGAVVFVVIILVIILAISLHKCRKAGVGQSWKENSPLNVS
T2 sequence (P00742 235-488 partner limits assumed): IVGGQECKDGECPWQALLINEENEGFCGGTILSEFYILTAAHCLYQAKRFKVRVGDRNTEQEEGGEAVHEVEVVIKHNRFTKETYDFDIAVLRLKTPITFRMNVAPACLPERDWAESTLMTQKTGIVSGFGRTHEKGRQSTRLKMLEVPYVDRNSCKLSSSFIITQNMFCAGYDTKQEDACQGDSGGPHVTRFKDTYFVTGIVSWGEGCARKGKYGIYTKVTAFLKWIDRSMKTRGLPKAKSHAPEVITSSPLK
T2 sequence (P00742 41-179 partner limits assumed): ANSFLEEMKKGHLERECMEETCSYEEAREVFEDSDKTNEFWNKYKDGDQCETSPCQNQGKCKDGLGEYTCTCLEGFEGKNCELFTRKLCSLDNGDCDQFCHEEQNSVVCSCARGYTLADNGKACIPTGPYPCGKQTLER
T1 sequence (P00742 235-488 limits assumed): as the sequence (P00742 235-488 partner limits assumed) above
T1 sequence (P00742 41-179 limits assumed): as the sequence (P00742 41-179 partner limits assumed) above

`CCc1c2c(nc3ccc(OC(=O)N4CCC(N5CCCCC5)CC4)cc13)-c1cc3c(c(=O)n1C2)COC(=O)[C@]3(O)CC` [CPT-11, irinotecan, reference compound] had a Hepatic metastasis-free events in data set [1] of 0%.
Take “TFPI: reported with rNAPc2 by Hembrough et al. to decrease tumor growth in mouse models [reference compound]”: the “growth of lung carcinoma tumors and melanoma tumors” value in data set [2] is recorded as “allegedly decrease the growth”.
As for “AVASTIN®: anti-VEGF antibody bevacizumab (Genentech) [reference compound]”, in data set [3], the “tumor weight reduced by, compared to vehicle control” value came out at 63%.
In the case of `O=c1[nH]cc(F)c(=O)[nH]1` [5-FU, 5-fluorouracil, reference compound], the “tumor weight reduced by, compared to vehicle control” value in data set [3] turned out to be 41%.

B1: NAP6: 75-amino acid NAP protein (SEQ ID NO: 2) originally isolated from the hookworm Ancylostoma caninum (protein, listed as Ancylostoma caninum)
chain: LAYPECGENEWLDVCGTKKPCEAKCSEEEEEDPICRSFSCPGPAACVCEDGFYRDTVIGDCVKEEECDQHEIIHV
For the molecule B1, the “selective inhibition of Factor Xa” value with Factor Xa was “selective inhibition of Factor Xa”.

B2: NAP5: 77-amino acid NAP protein (SEQ ID NO: 1) originally isolated from the hookworm Ancylostoma caninum (protein, listed as Ancylostoma caninum)
chain: KAYPECGENEWLDDCGTQKPCEAKCNEEPPEEEDPICRSRGCLLPPACVCKDGFYRDTVIGDCVREEECDQHEIIHV
Turning to B2, the “selective inhibition of Factor Xa” value with Factor Xa is recorded as “selective inhibition of Factor Xa”.

B3: rNAPc2: recombinant protein of the NAP family, single chain, non-glycosylated 85 amino acid protein (SEQ ID NO: 3) (protein, listed as Ancylostoma caninum)
chain: KATMQCGENEKYDSCGSKECDKKCKYDGVEEEDDEEPNVPCLVRVCHQDCVCEEGFYRNKDDKCVSAEDCELDNMDFIYPGTRN
On to B3, for which, in data set [2], the “growth of lung carcinoma tumors and melanoma tumors” value is listed as “allegedly decrease the growth”. Also, the inhibition of angiogenesis result in the data set with angiogenesis is on record as “potent inhibitor of angiogenesis”. In the data set with fVIIa/TF complex, the “selective inhibition of the fVIIa/TF complex” value was “selective inhibition of the fVIIa/TF complex”. Besides, the “formation of intestinal adenomas and adenocarcinomas” value in data set [4] (Apc^Min/+ mice, 100 μg/kg daily IP, long-term administration (10 to 11 weeks), analysis on week 16) was “suppressed formation of intestinal adenomas and adenocarcinomas”. In addition, the “tolerability (major hemorrhage or other adverse effects)” value in data set [4] (dosing regimens used in these studies, recipient mice) is reported as “well-tolerated up to a three month period”.

B4: rNAPc2/pro: recombinant protein having the amino acid sequence of rNAPc2 modified to add a proline residue to the C-terminus (SEQ ID NO: 4) (protein, listed as Ancylostoma caninum)
chain: KATMQCGENEKYDSCGSKECDKKCKYDGVEEEDDEEPNVPCLVRVCHQDCVCEEGFYRNKDDKCVSAEDCELDNMDFIYPGTRNP
Consider B4, for which the “tumor weight reduced by, compared to vehicle control” value in data set [3] is recorded as 31%. Further, the “tolerability (hemorrhage or other adverse effects)” value in data set [3] (doses and dosing regimens of rNAPc2/pro used in the murine model of colorectal cancer) is given as “well tolerated by the recipient mice without major complications of hemorrhage or other adverse effects”. The “Number of mice with no observable lung surface metastases” value in data set [5] (10 μg/kg/day, day 11) was 1; in data set [5] (30 μg/kg/day, day 11) it was 0; in data set [5] (100 μg/kg/day, day 11), 1; in data set [5] (300 μg/kg/day, day 11), 1; in data set [5] (1 mg/kg/day, day 11), 0; in data set [5] (2.5 mg/kg/day, day 11), 1. In addition, the “local hemorrhage in internal organs” value in data set [5] (2.5 mg/kg rNAPc2/pro, 1.5 mg/kg LOVENOX, some of the mice) is “some local hemorrhage was noticed in internal organs”. In data set [5] (compared to saline control mice, dose-dependent (10 μg/kg/day to 2.5 mg/kg/day), day 11, FIG. 8), the “number of lung surface metastases” value was “reduced the number of lung surface metastases”. Further, the lung mass result in data set [5] (compared to saline control mice, dose-dependent, day 11, FIG. 9) is listed as “reduced lung mass”. Moreover, the “dose well-tolerated with no hemorrhage-related mortality” value in data set [5] (mice, 11 days of treatment) is recorded as “up to 2.5 mg/kg/day”. Further, in data set [1] (300 μg/kg daily IP for 28 days, compared to vehicle control mice, day 42, FIG. 10), the “number of liver surface metastases” value was “reduced the number of liver surface metastases”. Moreover, the liver mass result in data set [1] (300 μg/kg daily IP for 28 days, compared to vehicle control mice, day 42, FIG. 11) is on record as “reduced liver mass”. Also, in data set [1], the Hepatic metastasis-free events is 0%. The “effect with CPT-11 in inhibiting hepatic metastases” value in data set [1] (rNAPc2/pro 300 μg/kg daily IP in combination with CPT-11 100 mg/kg once-weekly IP) was “synergistic effect”. Also, the “selective inhibition of the fVIIa/TF complex” value with fVIIa/TF complex was “selective inhibition of the fVIIa/TF complex”.
